In US20210230280A1:

Molecular target: FGFR4 (human) (UniProt P22455)
Test: ELISA; also printed 0.001 ug/mL

Chain of FGFR4 (human) (P22455 22-369): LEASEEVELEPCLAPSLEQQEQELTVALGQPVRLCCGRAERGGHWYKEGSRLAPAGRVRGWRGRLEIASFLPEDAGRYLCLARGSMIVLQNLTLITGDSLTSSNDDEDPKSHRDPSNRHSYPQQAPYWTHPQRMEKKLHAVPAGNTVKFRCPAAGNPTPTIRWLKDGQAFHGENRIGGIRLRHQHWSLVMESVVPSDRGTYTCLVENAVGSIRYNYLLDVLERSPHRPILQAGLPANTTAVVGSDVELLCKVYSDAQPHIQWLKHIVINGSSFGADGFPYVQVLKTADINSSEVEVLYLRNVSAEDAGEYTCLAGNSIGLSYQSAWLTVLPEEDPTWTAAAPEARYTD

- Kd: 0.07 nM
Substance: ab41948
